Results reported in US20120321619A1 (Bayer, published 2012).
Changes are numbered by the printed parent chain. Each block holds one binder with its values, some of them ahead of it.

Legend:
[1] = molecular target: T1, murine C4.4a on transfected CHO-S:mC4.4a cells (mouse, UniProt Q91YK8 33-343); test: FACS titration of IgG1 on CHO-S:mC4.4a cells
T1 construct: full length GPI-anchored form, stably transfected; also called Mouse C4.4a:CHO; mC4.4a: CHO
T1 sequence: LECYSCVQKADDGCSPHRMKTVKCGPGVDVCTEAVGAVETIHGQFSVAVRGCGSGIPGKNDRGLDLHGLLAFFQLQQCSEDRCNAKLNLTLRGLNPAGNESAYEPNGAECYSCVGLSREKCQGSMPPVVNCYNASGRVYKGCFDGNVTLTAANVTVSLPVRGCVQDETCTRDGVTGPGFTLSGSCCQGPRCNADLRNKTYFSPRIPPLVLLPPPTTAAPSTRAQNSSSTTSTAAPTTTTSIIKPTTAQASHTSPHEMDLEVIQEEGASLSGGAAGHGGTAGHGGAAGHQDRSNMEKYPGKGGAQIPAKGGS

[2] = molecular target: T2, human C4.4a natively expressed on tumor cell lines (human, UniProt O95274 31-326); test: FACS titration of IgG1 on NCI H292 cells
T2 construct: whole, on cells; also called NCI H292; NCI H322
T2 sequence (looked up): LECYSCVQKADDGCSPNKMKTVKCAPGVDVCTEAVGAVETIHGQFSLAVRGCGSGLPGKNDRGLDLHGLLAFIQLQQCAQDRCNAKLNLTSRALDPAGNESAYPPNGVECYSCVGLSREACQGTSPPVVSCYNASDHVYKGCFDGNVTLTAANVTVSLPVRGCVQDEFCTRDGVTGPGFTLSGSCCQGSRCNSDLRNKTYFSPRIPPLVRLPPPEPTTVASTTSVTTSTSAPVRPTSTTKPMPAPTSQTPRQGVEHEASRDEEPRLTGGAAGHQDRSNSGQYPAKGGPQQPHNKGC
Procedure: FACS titration was performed in a 96 well microtiter plate, in which serial dilutions of the primary antibody in a volume of 50 W of FACS buffer (3% FCS, in PBS) were mixed with 50 μl of a cell suspension consisting of 2×10^5 cells/ml which had been detached with Cell Dissociation Solution (1×) Non-enzymatic (Sigma), and resuspended in FACS buffer. Incubation was performed at 4° C. for 1 hour with agitation. Cells were pelleted, washed with FACS buffer and resuspended in 100 μl/well of Phycoerythrin labeled goat anti human IgG (Dianova) solution in FACS buffer. Incubation and washing was performed as before. Analysis of cell-bound antibodies was done at the respective detection wavelength using the FACS Array device. EC₅₀ values were determined from fluorescence medians of duplicates using Swift 8.0 software.

[3] = molecular target: T3, human C4.4a on transfected A549:hC4.4a cells (human, UniProt O95274 31-326); test: cell-based or functional assay
T3 sequence: T2 sequence (looked up)

[4] = molecular target: T4, recombinant soluble human C4.4a (human, UniProt O95274 31-308); test: SPR (Biacore T100), IgG1 captured by anti-human Fc, soluble C4.4a injected, 1:1 fit
T4 construct: recombinant, soluble, purified protein; also called hC4.4a; full length C4.4a
T4 sequence: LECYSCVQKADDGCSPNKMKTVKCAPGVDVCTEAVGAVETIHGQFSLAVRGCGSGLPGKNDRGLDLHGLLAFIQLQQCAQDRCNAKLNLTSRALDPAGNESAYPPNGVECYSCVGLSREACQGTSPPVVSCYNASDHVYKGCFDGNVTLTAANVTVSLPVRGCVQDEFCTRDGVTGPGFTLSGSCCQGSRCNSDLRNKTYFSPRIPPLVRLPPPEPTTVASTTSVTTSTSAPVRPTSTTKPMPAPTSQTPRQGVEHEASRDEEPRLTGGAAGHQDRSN
Procedure: (§1) Binding affinities of anti C4.4 antibodies were determined by surface plasmon resonance analysis on a Biacore T100 instrument (GE Healthcare Biacore, Inc.). Antibodies were immobilized onto a CM5 sensor chip through an indirect capturing reagent, anti-human IgG Fc. Reagents from the “Human Antibody Capture Kit” (BR-1008-39, GE Healthcare Biacore, Inc.) were used as described by the manufacturer. Approximately 5000 RU monoclonal mouse anti-human IgG (Fc) antibody were immobilized per cell. Anti C4.4 antibodies were injected at a concentration of 5 μg/ml at 10 μl/min for 10 sec to reach a capturing level of approximately 200 to 600 RU. Various concentrations (400 nM, 200 nM, 100 nM, 50 nM, 25 nM, 12.5 nM, 6.25 nM, and 3.12 nM) in HEPES-EP buffer (GE Healthcare Biacore, Inc.) of human or murine C4.4a were injected over immobilized anti C4.4a antibodies at a flow rate of 60 μl/min for 3 minutes and the dissociation was allowed for 10 minutes. Sensograms were generated after in-line reference cell correction followed by buffer sample subtraction. The dissociation equilibrium constant (KD) was calculated based on the ratio of association (kₒₙ) and dissociation rated (koff) constants, obtained by fitting sensograms with a first order 1:1 binding model using Biavaluation Software (version 4.0).

[5] = molecular target: T5, recombinant soluble murine C4.4a (mouse, UniProt Q91YK8 33-343, limits assumed); test: as above
T5 construct: also called mouse C4.4a; mC4.4a
T5 sequence (looked up): T1 sequence
Procedure: as §1

EC50 [1]: 1 nM
EC50 [2]: 0.02 nM
internalization t½ [min] into A549:hC4.4a cells (CypHer 5E labeled antibody) [3]: 39 min
Kd [4]: 6 nM
Kd [5]: 21 nM
B1: D02-6 (antibody, human IgG1, V domains shown)
VH: EVQLLESGGGLVQPGGSLRLSCAASGFTFSDYQMTWIRQTPGKGLEWVSGISWNGGSTHYADSVKGRFTISRDNSKNTLYLQMNSLRAEDTAVYYCAKGDYLVYSSYYFKSWGQGTLVTVSS
VL: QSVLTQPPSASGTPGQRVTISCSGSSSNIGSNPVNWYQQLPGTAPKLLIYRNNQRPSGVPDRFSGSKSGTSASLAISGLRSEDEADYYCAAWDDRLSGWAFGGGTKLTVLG
notes: tested as human IgG1; also called D02-06

EC50 [1]: 2 nM
EC50 [2]: 0.12 nM
Kd [4]: 2 nM
Kd [5]: 42 nM
B2: D02-13 (antibody, human IgG1, V domains shown)
VH: B1 VH with D31S, T40A, S105K
VL: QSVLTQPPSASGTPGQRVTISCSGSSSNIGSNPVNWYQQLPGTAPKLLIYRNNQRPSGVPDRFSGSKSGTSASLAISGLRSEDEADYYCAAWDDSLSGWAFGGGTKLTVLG
notes: tested as human IgG1

EC50 [1]: 1.7 nM
EC50 [2]: 0.01 nM
internalization t½ [min] into A549:hC4.4a cells (CypHer 5E labeled antibody) [3]: 22 min
Kd [4]: 10 nM
Kd [5]: 24 nM
B3: D02-11 (antibody, V domains shown)
VH: B1 VH
VL: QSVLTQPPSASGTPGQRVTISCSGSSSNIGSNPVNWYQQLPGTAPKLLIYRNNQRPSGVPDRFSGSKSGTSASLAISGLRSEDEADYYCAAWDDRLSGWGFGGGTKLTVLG
notes: tested as human IgG1

EC50 [1]: 0.78 nM
EC50 [2]: 0.03 nM
internalization t½ [min] into A549:hC4.4a cells (CypHer 5E labeled antibody) [3]: 33 min
Kd [4]: 9 nM
Kd [5]: 22 nM
B4: D02-7 (antibody, human IgG1, V domains shown)
VH: B1 VH with S105K
VL: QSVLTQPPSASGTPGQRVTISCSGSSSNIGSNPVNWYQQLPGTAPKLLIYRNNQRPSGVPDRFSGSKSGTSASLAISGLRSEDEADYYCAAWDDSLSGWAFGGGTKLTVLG
notes: tested as human IgG1; also called D02-07

Kd [4]: 29 nM
Kd [5]: 56 nM
B5: D02-4 (antibody, human IgG1, V domains shown)
VH: B1 VH with S106A, K110D
VL: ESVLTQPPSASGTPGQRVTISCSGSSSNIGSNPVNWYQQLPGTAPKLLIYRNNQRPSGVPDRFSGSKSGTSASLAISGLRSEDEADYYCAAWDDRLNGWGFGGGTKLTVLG
notes: tested as human IgG1; also called D02-04

EC50 [1]: 1.2 nM
EC50 [2]: 0.05 nM
Kd [4]: 4 nM
Kd [5]: 10 nM
B6: B01-5 (antibody, human IgG1, V domains shown)
VH: EVQLLESGGGLVQPGGSLRLSCAASGFTFSNAWMSWVRQAPGKGLEWVSYISSSGSTIYYADSVKGRFTISRDNSKNTLYLQMNSLRAEDTAVYYCAREGLWAFDYWGQGTLVTVSS
VL: QSVLTQPPSVSGAPGQRVTISCTGSSSNIGAGYVVHWYQQLPGTAPKLLIYDNNKRPSGVPDRFSGSKSGTSASLAISGLRSEDEADYYCAAYDDSLSGPVFGGGTKLTVLG
notes: tested as human IgG1; also called B01-05

EC50 [1]: 0.36 nM
EC50 [2]: 0.06 nM
internalization t½ [min] into A549:hC4.4a cells (CypHer 5E labeled antibody) [3]: 55 min
Kd [4]: 60 nM
Kd [5]: 120 nM
B7: B01-3 (antibody, human IgG1, V domains shown)
VH: B6 VH
VL: B6 VL with Q1E, Y93W, S96R, S98N
notes: tested as human IgG1; also called B01-03

EC50 [1]: 0.43 nM
EC50 [2]: 0.1 nM
internalization t½ [min] into A549:hC4.4a cells (CypHer 5E labeled antibody) [3]: 30 min
Kd [4]: 4 nM
Kd [5]: 1 nM
B8: B01-10 (antibody, human IgG1, V domains shown)
VH: B6 VH with N31S
VL: B6 VL
notes: tested as human IgG1

EC50 [1]: 1.4 nM
Kd [4]: 1 nM
Kd [5]: 2 nM
B9: B01-12 (antibody, V domains shown)
VH: B6 VH with N31S, T57S, I58T, Y106K
VL: B6 VL with V10A, A13T, T23S, K55Q, Y93F, S96R
notes: tested as human IgG1
